Molecular target: the molecule itself
Assay: negative-stain electron microscopy

B1: HIV-1 Rev (natural protein, UniProt P04616 1-116, looked up)
chain: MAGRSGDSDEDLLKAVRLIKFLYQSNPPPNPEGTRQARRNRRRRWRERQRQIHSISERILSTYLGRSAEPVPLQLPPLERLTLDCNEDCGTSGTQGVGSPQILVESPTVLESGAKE
binding result: binds
